Laboratory results from patent US20170224769A1.

Target: high mobility group box 1 protein (HMGB1) (Homo sapiens (Human)) (UniProt P09429)
Assay: SPR (Reichert SR7500DC), HMGB1 coated on CMDH chip

Sequence of UniProt P09429 (P09429 whole entry, form in doubt): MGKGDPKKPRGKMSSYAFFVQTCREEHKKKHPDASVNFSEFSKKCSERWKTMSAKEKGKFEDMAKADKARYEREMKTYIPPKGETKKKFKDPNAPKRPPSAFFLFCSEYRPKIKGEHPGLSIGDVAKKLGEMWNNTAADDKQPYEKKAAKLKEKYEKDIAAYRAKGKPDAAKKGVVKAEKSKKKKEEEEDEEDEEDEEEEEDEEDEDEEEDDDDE

Row | Substance | Kd [nM] | koff [s⁻¹] | kon [M⁻¹ s⁻¹]
1 | rHMGB1A-his6 (high mobility group box 1 A domain, C-terminal six histidines) (from UniProt P09429 1-164) | 2800 | 0.00394 | 1400
2 | rTAT-HMGB1A-his6 (fusion of the TAT peptide and the A box domain of HMGB1, C-terminal six histidines) (from UniProt P04608 49-57; P09429 1-164) | 75.1 | 0.000691 | 9200
